From PMC8162731

System: CC(C)(O)[C@@H](O)C(=O)O
Test: purified protein
Format: biochemical, Synechocystis sp. PCC 6803
Conditions: aerobic

Substance	Km (as-purified enzyme) [µM]	Km (as-purified enzyme 0.05 μM, pH 8.0, 50 °C) [µM]
SnDHAD (Synechocystis sp. PCC 6803 substr. Kazusa; Y477H)	108.9 ± 10.7	
SnDHAD (Synechocystis sp. PCC 6803 substr. Kazusa)		136.3 ± 9.0
